Results from US20240124553A1.

What was measured:
Test in all cases: flow cytometry, transfected 293T cells
[1] = target: CHIKV E2-E1 envelope glycoproteins (strain S27), E2 mutant E40A (chikungunya virus strain S27) (UniProt Q8JUX5)
[2] = target: CHIKV E2-E1 envelope glycoproteins (strain S27), E2 mutant A41S (chikungunya virus strain S27) (UniProt Q8JUX5)
[3] = target: CHIKV E2-E1 envelope glycoproteins (strain S27), E2 mutant R104A (chikungunya virus strain S27) (UniProt Q8JUX5)
[4] = target: CHIKV E2-E1 envelope glycoproteins (strain S27), E2 mutant T96A (chikungunya virus strain S27) (UniProt Q8JUX5)
[5] = target: CHIKV E2-E1 envelope glycoproteins (strain S27), E2 mutant T65A (chikungunya virus strain S27) (UniProt Q8JUX5)
[6] = target: CHIKV E2-E1 envelope glycoproteins (strain S27), E2 mutant A78S (chikungunya virus strain S27) (UniProt Q8JUX5)
[7] = target: CHIKV E2-E1 envelope glycoproteins (strain S27), E2 mutant G108A (chikungunya virus strain S27) (UniProt Q8JUX5)
[8] = target: CHIKV E2-E1 envelope glycoproteins (strain S27), E2 mutant T92A (chikungunya virus strain S27) (UniProt Q8JUX5)
[9] = target: CHIKV E2-E1 envelope glycoproteins (strain S27), E2 mutant V32A (chikungunya virus strain S27) (UniProt Q8JUX5)
[10] = target: CHIKV E2-E1 envelope glycoproteins (strain S27), E2 mutant A81S (chikungunya virus strain S27) (UniProt Q8JUX5)
[11] = target: CHIKV E2-E1 envelope glycoproteins (strain S27), E2 mutant K47A (chikungunya virus strain S27) (UniProt Q8JUX5)
[12] = target: CHIKV E2-E1 envelope glycoproteins (strain S27), E2 mutant T126A (chikungunya virus strain S27) (UniProt Q8JUX5)
[13] = target: CHIKV E2-E1 envelope glycoproteins (strain S27), E2 mutant D132A (chikungunya virus strain S27) (UniProt Q8JUX5)
[14] = target: CHIKV E2-E1 envelope glycoproteins (strain S27), E2 mutant P106A (chikungunya virus strain S27) (UniProt Q8JUX5)
[15] = target: CHIKV E2-E1 envelope glycoproteins (strain S27), E2 mutant T45A (chikungunya virus strain S27) (UniProt Q8JUX5)
[16] = target: CHIKV E2-E1 envelope glycoproteins (strain S27), E2 mutant R80A (chikungunya virus strain S27) (UniProt Q8JUX5)
[17] = target: CHIKV E2-E1 envelope glycoproteins (strain S27), E2 mutant D63A (chikungunya virus strain S27) (UniProt Q8JUX5)
[18] = target: CHIKV E2-E1 envelope glycoproteins (strain S27), E2 mutant W64A (chikungunya virus strain S27) (UniProt Q8JUX5)
[19] = target: CHIKV E2-E1 envelope glycoproteins (strain S27), E2 mutant V50A (chikungunya virus strain S27) (UniProt Q8JUX5)
[20] = target: CHIKV E2-E1 envelope glycoproteins (strain S27), E2 mutant H73A (chikungunya virus strain S27) (UniProt Q8JUX5)
[21] = target: CHIKV E2-E1 envelope glycoproteins (strain S27), E2 mutant I101A (chikungunya virus strain S27) (UniProt Q8JUX5)
[22] = target: CHIKV E2-E1 envelope glycoproteins (strain S27), E2 mutant T42A (chikungunya virus strain S27) (UniProt Q8JUX5)
[23] = target: CHIKV E2-E1 envelope glycoproteins (strain S27), E2 mutant C91A (chikungunya virus strain S27) (UniProt Q8JUX5)
[24] = target: CHIKV E2-E1 envelope glycoproteins (strain S27), E2 mutant H130A (chikungunya virus strain S27) (UniProt Q8JUX5)
[25] = target: CHIKV E2-E1 envelope glycoproteins (strain S27), E2 mutant G44A (chikungunya virus strain S27) (UniProt Q8JUX5)
[26] = target: CHIKV E2-E1 envelope glycoproteins (strain S27), E2 mutant S124A (chikungunya virus strain S27) (UniProt Q8JUX5)
[27] = target: CHIKV E2-E1 envelope glycoproteins (strain S27), E2 mutant S122A (chikungunya virus strain S27) (UniProt Q8JUX5)
[28] = target: CHIKV E2-E1 envelope glycoproteins (strain S27), E2 mutant H131A (chikungunya virus strain S27) (UniProt Q8JUX5)
[29] = target: CHIKV E2-E1 envelope glycoproteins (strain S27), E2 mutant P90A (chikungunya virus strain S27) (UniProt Q8JUX5)
[30] = target: CHIKV E2-E1 envelope glycoproteins (strain S27), E2 mutant D71A (chikungunya virus strain S27) (UniProt Q8JUX5)
[31] = target: CHIKV E2-E1 envelope glycoproteins (strain S27), E2 mutant S88A (chikungunya virus strain S27) (UniProt Q8JUX5)
[32] = target: CHIKV E2-E1 envelope glycoproteins (strain S27), E2 mutant L52A (chikungunya virus strain S27) (UniProt Q8JUX5)
[33] = target: CHIKV E2-E1 envelope glycoproteins (strain S27), E2 mutant V113A (chikungunya virus strain S27) (UniProt Q8JUX5)

| Substance | Binding Reactivity (% WT) [1] [% WT] | Binding Reactivity (% WT) [2] [% WT] | Binding Reactivity (% WT) [4] [% WT] | Binding Reactivity (% WT) [5] [% WT] | Binding Reactivity (% WT) [6] [% WT] | Binding Reactivity (% WT) [7] [% WT] | Binding Reactivity (% WT) [8] [% WT] | Binding Reactivity (% WT) [9] [% WT] | Binding Reactivity (% WT) [10] [% WT] | Binding Reactivity (% WT) [11] [% WT] | Binding Reactivity (% WT) [12] [% WT] | Binding Reactivity (% WT) [14] [% WT] | Binding Reactivity (% WT) [15] [% WT] | Binding Reactivity (% WT) [16] [% WT] | Binding Reactivity (% WT) [17] [% WT] | Binding Reactivity (% WT) [18] [% WT] | Binding Reactivity (% WT) [19] [% WT] | Binding Reactivity (% WT) [20] [% WT] | Binding Reactivity (% WT) [21] [% WT] | Binding Reactivity (% WT) [22] [% WT] | further results |
| --- | --- | --- | --- | --- | --- | --- | --- | --- | --- | --- | --- | --- | --- | --- | --- | --- | --- | --- | --- | --- | --- |
| CHIKV mAb IM-CKV065 (antibody) | 124 | 33.8 | 113 | 98.4 | 107 | 34.8 | 93.2 | 33.3 | 96.6 | 85.5 | 67.2 | 98.1 | 62.4 | 125 | 64.8 | 86.3 | 48.2 | -0.9 | 6.3 | 104 | Binding Reactivity (% WT) [3]: 66.9 % WT; Binding Reactivity (% WT) [13]: 126 % WT; Binding Reactivity (% WT) [23]: -2 % WT; Binding Reactivity (% WT) [24]: 104 % WT; Binding Reactivity (% WT) [25]: 50.4 % WT; Binding Reactivity (% WT) [26]: 97.3 % WT; Binding Reactivity (% WT) [27]: 91.1 % WT; Binding Reactivity (% WT) [28]: 3.2 % WT; Binding Reactivity (% WT) [29]: 108 % WT; Binding Reactivity (% WT) [30]: 102 % WT; Binding Reactivity (% WT) [31]: 101 % WT; Binding Reactivity (% WT) [32]: 142 % WT; Binding Reactivity (% WT) [33]: 70.4 % WT |
| Mxra8-Fc (mouse Mxra8 extracellular domain fused to mouse IgG2b Fc) (Fc fusion) | 86.2 | 4.9 | 95.6 | 68.9 | 106 | 76.7 | 98.6 | 47.1 | 85.2 | 102 | 76 | 91.2 | 81.2 | 131 | 85 | 17.7 | 67.8 | 102 | 23.7 | 95.7 | Binding Reactivity (% WT) [23]: 1 % WT; Binding Reactivity (% WT) [24]: 101 % WT; Binding Reactivity (% WT) [25]: 72.2 % WT; Binding Reactivity (% WT) [26]: 92.8 % WT; Binding Reactivity (% WT) [27]: 101 % WT; Binding Reactivity (% WT) [28]: 15.7 % WT; Binding Reactivity (% WT) [29]: 114 % WT; Binding Reactivity (% WT) [30]: -0.3 % WT; Binding Reactivity (% WT) [31]: 94 % WT; Binding Reactivity (% WT) [32]: 86.8 % WT; Binding Reactivity (% WT) [33]: 78 % WT |
| CHIKV mAb IM-CKV063 (antibody) | 106 | 51.1 | 111 | 70.1 | 99.1 | 59 | 84.5 | 44.1 | 93 | 72.1 | 83.4 | 94.3 | 62.1 | 86.3 | 65.8 | 69.1 | 64.1 | 84.2 | 19.8 | 111 | Binding Reactivity (% WT) [3]: 75.7 % WT; Binding Reactivity (% WT) [13]: 116 % WT; Binding Reactivity (% WT) [23]: 1.5 % WT; Binding Reactivity (% WT) [24]: 91 % WT; Binding Reactivity (% WT) [25]: 68.2 % WT; Binding Reactivity (% WT) [26]: 97.8 % WT; Binding Reactivity (% WT) [27]: 82.8 % WT; Binding Reactivity (% WT) [28]: 16.5 % WT; Binding Reactivity (% WT) [29]: 95.3 % WT; Binding Reactivity (% WT) [30]: 98.9 % WT; Binding Reactivity (% WT) [31]: 89.5 % WT; Binding Reactivity (% WT) [32]: 107 % WT; Binding Reactivity (% WT) [33]: 79.8 % WT |
